Measurements: the supplement of paper PMC10724198

What was measured:
[1] = system: Saccharomyces cerevisiae; experiment: protein stability index of tFT-peptide fusion in wild type (PSI (0-1 scale)); higher = more stable (slower turnover); conditions: genetic background: wild type
Method: (§1)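 MPS profiling in S. cerevisiae of two library types built from selected 12-aa C-degron peptides (IN1, IN2, LN1, LN3, VN2, R1-R5, W1-W3, Atg1 and Rpa12 C-termini): saturation mutagenesis libraries and C-terminal +1 capping libraries (13 aa). Each peptide is fused to the C-terminus of a sfGFP-mCherry timer, after a GGGS linker. Cells are FACS-sorted into 8 mCherry/sfGFP bins and sequenced. PSI runs from 0 (unstable) to 1 (stable), measured once in wild type and in the das1Δ or doa10Δ background.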

[2] = system: Saccharomyces cerevisiae; experiment: protein stability index of tFT-peptide fusion in deletion strain of DAS1 (PSI (0-1 scale)); higher = more stable (slower turnover)
Method: as §1
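For protein stability index of tFT-peptide fusion in deletion strain of DAS1 in this document: PSI is a weighted mean of each variant's read distribution over the sorted stability bins, computed only for variants having over 10 reads in total.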
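For protein stability index of tFT-peptide fusion in wild type in this document: PSI derived as read-weighted mean over the 8 sorting bins, only variants exceeding 10 total reads kept, mCherry placed adjacent to the peptide and sfGFP distal.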

Row | Sequence | protein stability index [1] | protein stability index [2]
1 | CTSCGGKFRTNN | 0.61 | 0.675
2 | CTSCGYKQRTNN | 0.538 | 0.688
3 | FSMRSTFRYWVN | 0.096 | 0.608
4 | ARWRVGLWTGAS | 0.664 | 0.677
5 | PDKRNHLQKLLN | 0.168 | 0.582
6 | PSRAASFWRVVG | 0.149 | 0.691
7 | FMMRWTFRYWVN | 0.0399 | 0.359
8 | VRGAVGFWRLVG | 0.16 | 0.687
9 | VRGAVGGWRLVR | 0.651 | 0.682
10 | LVVYLSCVACINV | 0.02 | 0.0328
11 | RLIQPLPVQFFN | 0.0467 | 0.563
12 | LVVYRSCVACIN | 0.133 | 0.333
13 | CTSCGYKFRTNNG | 0.683 | 0.69
14 | CTSCGYKFRTIN | 0.148 | 0.698
15 | QVVYLSCVACIN | 0.0122 | 0.0307
16 | PSLAASFWREVG | 0.258 | 0.705
17 | KKVKKGQKQKIN | 0.122 | 0.631
18 | FSMRWCFRYWVN | 0.0796 | 0.554
19 | FSMRWTNRYWVN | 0.0731 | 0.592
20 | ARGAVGGWRLVG | 0.172 | 0.653
21 | PDKRNHWIKLLN | 0.196 | 0.567
22 | LVVYLSCVACHN | 0.0435 | 0.0392
23 | KKILRQKMNHQN | 0.159 | 0.688
24 | ARWRVGWWRGAS | 0.405 | 0.701

Row | Sequence | protein stability index [1] | protein stability index [2]
25 | CTSCGYKFRTND | 0.7 | 0.695
26 | ARWRVGLGRGAS | 0.456 | 0.679
27 | FSMRWTFHYWVN | 0.048 | 0.456
28 | LKILRQKMQHQN | 0.238 | 0.716
29 | CTSCGYKFRTEN | 0.45 | 0.725
30 | LVVYLSCVFCIN | 0.0477 | 0.167
31 | PDKRNHLIKLQN | 0.453 | 0.737
32 | LVGYLSCVACIN | 0.0848 | 0.342
33 | PSLAASFWRVCG | 0.163 | 0.659
34 | VRGAVYGWRLVG | 0.141 | 0.666
35 | PDKRNHLIKLLI | 0.206 | 0.594
36 | CTSCGYKFFTNN | 0.347 | 0.727
37 | LKILRQKMNHLN | 0.192 | 0.674
38 | LVVPLSCVACIN | 0.254 | 0.359
39 | RLIQPLPVQDLN | 0.6 | 0.576
40 | PSLPASFWRVVG | 0.197 | 0.685
41 | LKILRQKVNHQN | 0.282 | 0.661
42 | LKILRQKMFHQN | 0.206 | 0.654
43 | LKILRHKMNHQN | 0.194 | 0.693
44 | KKHKKGQKQKNN | 0.476 | 0.643
45 | LKILRMKMNHQN | 0.243 | 0.71
46 | KKSKKGQKQKIN | 0.0679 | 0.576
47 | FQMRWTFRYWVN | 0.0681 | 0.46
48 | ARWRVGLERGAS | 0.661 | 0.7

Row | Sequence | protein stability index [1] | protein stability index [2]
49 | VSMRWTFRYWVN | 0.0543 | 0.509
50 | KQHKKGQKQKIN | 0.104 | 0.621
51 | PSLAASFVRVVG | 0.528 | 0.514
52 | RLIQPLPVQALN | 0.36 | 0.569
53 | LVVYLSCVDCIN | 0.402 | 0.417
54 | FSMRWTFWYWVN | 0.0405 | 0.416
55 | RLYQPLPVQFLN | 0.068 | 0.586
56 | KPHKKGQKQKIN | 0.0908 | 0.625
57 | RLIQNLPVQFLN | 0.029 | 0.57
58 | PSLAASFWRVPG | 0.677 | 0.689
59 | FRMRWTFRYWVN | 0.0353 | 0.584
60 | DKHKKGQKQKIN | 0.113 | 0.602
61 | RLIQPLPCQFLN | 0.0496 | 0.587
62 | RLIQPLPVQVLN | 0.204 | 0.46
63 | RLIQPLPVQFLQ | 0.447 | 0.647
64 | KKTKKGQKQKIN | 0.113 | 0.583
65 | CTACGYKFRTNN | 0.259 | 0.676
66 | FSMSWTFRYWVN | 0.0567 | 0.493
67 | PDKRNHLIKPLN | 0.607 | 0.586
68 | PDKKNHLIKLLN | 0.09 | 0.768
69 | PDKRNHLIKLPN | 0.592 | 0.587
70 | PSLAASFHRVVG | 0.687 | 0.649
71 | LVVKLSCVACIN | 0.0127 | 0.0586
72 | LVVYLSCVICIN | 0.0482 | 0.112

Row | Sequence | protein stability index [1] | protein stability index [2]
73 | CCSCGYKFRTNN | 0.226 | 0.681
74 | CYSCGYKFRTNN | 0.168 | 0.708
75 | PDKRNHLIKELN | 0.355 | 0.597
76 | VRGAVGWWRLVG | 0.163 | 0.665
77 | KKHKKGQKQKKN | 0.577 | 0.843
78 | LKILRQKFNHQN | 0.202 | 0.668
79 | YRGAVGGWRLVG | 0.218 | 0.664
80 | RLIQPLPVQFNN | 0.554 | 0.6
81 | VRGACGGWRLVG | 0.143 | 0.677
82 | KKHKKGDKQKIN | 0.137 | 0.599
83 | VRGAGGGWRLVG | 0.209 | 0.663
84 | LVVYLSCVECIN | 0.125 | 0.262
85 | LVVYLSCVAYIN | 0.0128 | 0.0273
86 | LKILRQKMDHQN | 0.613 | 0.673
87 | PDKRNHLIKLIN | 0.115 | 0.612
88 | ARWYVGLWRGAS | 0.469 | 0.696
89 | LVVYLSCVACIG | 0.0178 | 0.0316
90 | PDKRNWLIKLLN | 0.0714 | 0.675
91 | LVVYLSCTACIN | 0.0192 | 0.0401
92 | CTSCGYKFRTKN | 0.631 | 0.702
93 | FSMRWTFRYWVR | 0.416 | 0.446
94 | VRGAVGGWRAVG | 0.365 | 0.67
95 | CTSLGYKFRTNN | 0.17 | 0.689
96 | RLIQPLPVQFLD | 0.633 | 0.573

Row | Sequence | protein stability index [1] | protein stability index [2]
97 | CSLAASFWRVVG | 0.125 | 0.69
98 | ARWRVWLWRGAS | 0.341 | 0.711
99 | KKHKKTQKQKIN | 0.0737 | 0.677
100 | FSKRWTFRYWVN | 0.0512 | 0.596
101 | CTSCGYAFRTNN | 0.226 | 0.697
102 | FSMRWEFRYWVN | 0.0711 | 0.471
103 | RLIQPLPVQFCN | 0.195 | 0.681
104 | ARWRVGLWRGASM | 0.651 | 0.639
105 | RCIQPLPVQFLN | 0.0766 | 0.572
106 | VRIAVGGWRLVG | 0.11 | 0.68
107 | PSLAYSFWRVVG | 0.134 | 0.693
108 | LVAYLSCVACIN | 0.0244 | 0.156
109 | ARWRVALWRGAS | 0.254 | 0.671
110 | ACWRVGLWRGAS | 0.445 | 0.694
111 | PSLAASFWRVLG | 0.164 | 0.68
112 | LVVYLSCVACINM | 0.183 | 0.206
113 | LKILRQKMNHMN | 0.191 | 0.605
114 | VRGAVFGWRLVG | 0.149 | 0.678
115 | PSLAASFWRVVGK | 0.666 | 0.689
116 | PDKRNHLIQLLN | 0.102 | 0.616
117 | KTHKKGQKQKIN | 0.0924 | 0.684
